Laboratory results reported in PMC9856709 (Cancers, 2023).
“Also recorded” adds a separate entry of the source. Numbered stars: 1 amine (or outer) side, 2 acyl side, 3 side chain; on linkers, the order of the positions; unused ones are H or OH. Square brackets hold non-standard residues; d marks the D form. Peptide text beside a SMILES is read from it. * marks the point of attachment. NOTA = O=C(O)CN1CCN(CC(=O)O)CCN(CC(=O)*)CC1; γGlu = O=C(O)[C@H](CCC(=O)[*:2])N[*:1]; Sta = CC(C)C[C@H](N)[C@@H](O)CC(=O)O; AEEA = NCCOCCOCC(=O)O; Aoc = NCCCCCCCC(=O)O; CO = O=C([*:1])[*:2]

Experiments:
PSMA and GRPR = assay: In vitro binding specificity (blocking) in PC3-pip cells; format: cell-based, human; details: 1 h 37 °C
Procedure: In vitro experiments were carried out using the PSMA- and GRPR-expressing human prostate carcinoma PC3-pip cell line (obtained from Prof. Martin Pomper, The Johns Hopkins University, Baltimore, MD, USA). Cells (5–7 × 10^5 cells/vial) were seeded 24–48 h before the experiments. All experiments were performed in triplicate.
To block the targets, cells were incubated at room temperature for 15 min with an excess (750 nM/well) of PSMA-11 (to block PSMA) and/or NOTA-PEG2-RM26 (to block GRPR). […] After 1 h, cells were collected, and the radioactive content was measured using an automated gamma counter.

in vivo = details: BALB/c nu/nu, mouse, iv, 40 pmol, total radioactivity
Procedure: (§1) Ex vivo experiments and in vivo imaging were carried out using BALB/c nu/nu mice bearing PC3-pip xenografts. All studies were performed according to the guidelines of the Declaration of Helsinki and approved by the Ethics Committee for Animal Research in Uppsala, Sweden (5.8.18-00473/2021. Approved on 26 February 2021).
(§2) There were 4 mice in each group. At 1 and 3 h pi, mice were sacrificed after an intraperitoneal injection of a Ketalar–Rompun solution (20 μL/g body weight) consisting of Ketalar (10 mg/mL) and Rompun (1 mg/mL), followed by heart puncture.

PC3-pip xenografts [1] = assay: in vivo; details: non-blocked
Procedure: as §1, §2

[2] = Description: The average animal weight was 27.4 ± 1.6 g and OLINDA/EXM 1.0 software (adult male phantom) was used to estimate the absorbed doses.
The well-established “percent kg/g method” using Equation (1) was used to upscale the uptake values in mice to be able to evaluate the dosimetry in humans. The organ weights of the reference adult male were used to calculate the organ uptake in humans and the area under the curve of exponential fits for human time–activity curves was used to calculate the residence times. (%IA/organ)human = [(%IA/g)animal × (kBqTBweight)animal × (gorgan/(kBqTBweight)human](1)

PC3-pip xenografts [3] = assay: nanoScan PET/CT imaging of PC3-pip xenografted mice; format: in vivo, BALB/c nu/nu mice; details: 100 pmol, 8 MBq, n = 2
Procedure: Immediately after the PET scan, a CT scan was performed using a nanoScan SPECT/CT camera (Mediso Medical Imaging System Ltd., Budapest, Hungary) with the same bed. […] Imaging of the non-blocked (n = 2) and the PSMA/GRPR-blocked (n = 2) groups was performed at 1 and 3 h pi. Reconstruction of the PET/CT scans was conducted using Nucline nanoScan 3.04.014.0000 software.

Wistar rats = assay: Acute and subacute toxicity in rats; format: in vivo
Procedure: The animals were kept in a barrier-type animal facility under standard housing conditions. […] The dose of heterodimer for toxicological studies was calculated based on cross-species dose conversion using body surface area scaling: the maximum dose for the clinical study was chosen to be 300 µg of heterodimer per 75 kg patient, or […], which corresponds to [(4 µg × 427 g)/1000 g] × 6 = 10.3 µg per rat. Ten rats from each group were euthanized at 24 h pi and five rats at 28 days pi. The body weight of the rats was controlled at baseline, at 24 h after administration for the acute toxicity group, and every second day for the subacute toxicity group. Biochemical blood tests on alanine aminotransferase, albumin, aspartate aminotransferase, bilirubin, glucose, creatinine, urea, the total amount of proteins, cholesterol, and ALT were performed before the euthanasia. Necropsy of the experimental rats was performed, and the weights of the brain, heart, lungs, liver, adrenal glands, kidneys, spleen, testes, and thymus were measured.

[4] = estimated for adult male from mouse ex vivo data, percent kg/g method, OLINDA/EXM 1.0

SMILES: CC(C)C[C@H](NC(=O)C[C@H](O)[C@H](CC(C)C)NC(=O)[C@H](Cc1c[nH]cn1)NC(=O)CNC(=O)[C@@H](NC(=O)[C@H](C)NC(=O)[C@H](Cc1c[nH]c2ccccc12)NC(=O)[C@H](CCC(N)=O)NC(=O)[C@@H](Cc1ccccc1)NC(=O)COCCOCCNC(=O)[C@H](CCCCNC(=O)CN1CCN(CC(=O)O)CCN(CC(=O)O)CC1)NC(=O)[C@H](Cc1ccccc1)NC(=O)CCCCCCCNC(=O)CC[C@H](NC(=O)N[C@@H](CCC(=O)O)C(=O)O)C(=O)O)C(C)C)C(N)=O [[^68Ga]Ga-BQ7812, metal not drawn] ({Glu-CO-γGlu-Aoc}-FK(NOTA)[AEEA][dF]QWAVGH[Sta]L-NH2)
- Uptake in cells pre-saturated with both blocking agents compared to either one (PSMA and GRPR; 20 nM tracer): significantly lower
- Activity uptake after pre-saturation of GRPR compared to naive cells (PSMA and GRPR; excess NOTA-PEG2-RM26, 20 nM tracer, triplicate, p < 0.05): significant decrease
- Activity uptake after pre-saturation of PSMA compared to naive cells (PSMA and GRPR; excess PSMA-11, 20 nM tracer, triplicate, p < 0.05): significant decrease
- Activity uptake after pre-saturation of PSMA and GRPR compared to naive cells (PSMA and GRPR; excess PSMA-11 and NOTA-PEG2-RM26, 20 nM tracer, triplicate, p < 0.05): significant decrease
- tissue uptake at 1 h (in vivo; blood): 0.86 ± 0.16 %ID/g
- tissue uptake at 3 h (in vivo; blood): 0.16 ± 0.02 %ID/g
- tissue uptake at 1 h (in vivo; bone): 0.31 ± 0.06 %ID/g
- tissue uptake at 3 h (in vivo; bone): 0.13 ± 0.03 %ID/g
- tissue uptake at 1 h (in vivo; kidneys): 45.3 ± 16.6 %ID/g
- tissue uptake at 1 h (in vivo; liver): 0.89 ± 0.1 %ID/g
- tissue uptake at 3 h (in vivo; liver): 0.57 ± 0.03 %ID/g
- tissue uptake at 1 h (in vivo; lungs): 0.86 ± 0.15 %ID/g
- tissue uptake at 3 h (in vivo; lungs): 0.2 ± 0.05 %ID/g
- tissue uptake at 1 h (in vivo; muscle): 0.21 ± 0.04 %ID/g
- tissue uptake at 3 h (in vivo; muscle): 0.05 ± 0.01 %ID/g
- tissue uptake at 1 h (in vivo; pancreas): 5.6 ± 0.7 %ID/g
- tissue uptake at 3 h (in vivo; pancreas): 0.6 ± 0.16 %ID/g
- tissue uptake at 1 h (in vivo; remaining organs (other than tumour, kidneys, pancreas)): ≤ 1 %ID/g
- tissue uptake at 1 h (in vivo; salivary glands): 0.44 ± 0.07 %ID/g
- tissue uptake at 3 h (in vivo; salivary glands): 0.14 ± 0.03 %ID/g
- tissue uptake at 1 h (in vivo; small intestine): 1.33 ± 0.31 %ID/g
- tissue uptake at 3 h (in vivo; small intestine): 0.2 ± 0.02 %ID/g
- tissue uptake at 1 h (in vivo; spleen): 0.92 ± 0.16 %ID/g
- tissue uptake at 3 h (in vivo; spleen): 0.33 ± 0.03 %ID/g
- tissue uptake at 3 h (in vivo; tumour (PC3-pip xenograft)): 5.68 ± 0.62 %ID/g
- tissue to tissue ratio at 3 h (in vivo; tumour (PC3-pip) / bone): 47 ± 13
- tissue to tissue ratio at 3 h (in vivo; tumour (PC3-pip) / kidneys): 0.53 ± 0.07
- tissue to tissue ratio at 3 h (in vivo; tumour (PC3-pip) / liver): 9.9 ± 0.8
- tissue to tissue ratio at 3 h (in vivo; tumour (PC3-pip) / muscle): 116 ± 22
- tissue to tissue ratio at 3 h (in vivo; tumour (PC3-pip) / pancreas): 10 ± 4
- tissue to tissue ratio at 3 h (in vivo; tumour (PC3-pip) / small intestine): 28 ± 4
- tissue to tissue ratio at 3 h (in vivo; tumour (PC3-pip) / spleen): 18 ± 3
- tissue uptake at 1 h (in vivo; tumour (PC3-pip)): 10.4 ± 0.97 %ID/g
- tissue uptake at 3 h (in vivo; tumour (PC3-pip)): 5.7 ± 0.6 %ID/g
- tissue to tissue ratio at 1 h (in vivo; tumour / blood): 13 ± 3
- tissue to tissue ratio at 3 h (in vivo; tumour / blood): 35 ± 4
- tissue to tissue ratio at 1 h (in vivo; tumour / bone): 35 ± 8
- tissue to tissue ratio at 1 h (in vivo; tumour / kidneys): 0.3 ± 0.1
- tissue to tissue ratio at 1 h (in vivo; tumour / liver): 11.8 ± 1
- tissue to tissue ratio at 1 h (in vivo; tumour / lungs): 12 ± 3
- tissue to tissue ratio at 3 h (in vivo; tumour / lungs): 29 ± 5
- tissue to tissue ratio at 1 h (in vivo; tumour / muscle): 52 ± 12
- tissue to tissue ratio at 1 h (in vivo; tumour / pancreas): 1.9 ± 0.2
- tissue to tissue ratio at 1 h (in vivo; tumour / salivary glands): 24 ± 3
- tissue to tissue ratio at 3 h (in vivo; tumour / salivary glands): 40 ± 8
- tissue to tissue ratio at 1 h (in vivo; tumour / small intestine): 8 ± 2
- tissue to tissue ratio at 1 h (in vivo; tumour / spleen): 12 ± 3
- Activity uptake in the kidneys at 3 h pi as % of uptake at 1 h pi (PC3-pip xenografts [1]): 26%
- Activity uptake in the pancreas at 3 h pi as % of uptake at 1 h pi (PC3-pip xenografts [1]): 11%
- Activity uptake in the tumour at 3 h pi as % of uptake at 1 h pi (PC3-pip xenografts [1]): 55%
- Total dose per scan ([2]; after injection of 200–300 MBq, from estimated effective dose): 1.66–2.49 mSv
- Absorbed doses in the remaining organs and tissues (other than kidneys, heart wall, lower large intestine wall) ([2]; estimated for adult male from mouse ex vivo data): below 0.02 mSv/MBq
- Absorbed Dose, Adrenals [2, 4]: 0.0043 mGy/MBq
- Absorbed Dose, Brain [2, 4]: 0.0007 mGy/MBq
- Absorbed Dose, Breasts [2, 4]: 0.0030 mGy/MBq
- Absorbed Dose, Gallbladder wall [2, 4]: 0.0042 mGy/MBq
- Absorbed Dose, Heart wall [2, 4]: 0.0265 mGy/MBq
- Absorbed Dose, Kidneys [2, 4]: 0.0660 mGy/MBq
- Absorbed Dose, Liver [2, 4]: 0.0044 mGy/MBq
- Absorbed Dose, Lower large intestine wall [2, 4]: 0.0250 mGy/MBq
- Absorbed Dose, Lungs [2, 4]: 0.0041 mGy/MBq
- Absorbed Dose, Muscle [2, 4]: 0.0024 mGy/MBq
- Absorbed Dose, Osteogenic cells [2, 4]: 0.0080 mGy/MBq
- Absorbed Dose, Ovaries [2, 4]: 0.0045 mGy/MBq
- Absorbed Dose, Pancreas [2, 4]: 0.0186 mGy/MBq
- Absorbed Dose, Red marrow [2, 4]: 0.0057 mGy/MBq
- Absorbed Dose, Skin [2, 4]: 0.0026 mGy/MBq
- Absorbed Dose, Small intestine wall [2, 4]: 0.0199 mGy/MBq
- Absorbed Dose, Spleen [2, 4]: 0.0033 mGy/MBq
- Absorbed Dose, Stomach wall [2, 4]: 0.0048 mGy/MBq
- Absorbed Dose, Testes [2, 4]: 0.0030 mGy/MBq
- Absorbed Dose, Thymus [2, 4]: 0.0038 mGy/MBq
- Absorbed Dose, Thyroid [2, 4]: 0.0030 mGy/MBq
- Absorbed Dose, Total body [2, 4]: 0.0044 mGy/MBq
- Absorbed Dose, Upper large intestines LI wall [2, 4]: 0.0111 mGy/MBq
- Absorbed Dose, Urinary bladder wall [2, 4]: 0.0036 mGy/MBq
- Absorbed Dose, Uterus [2, 4]: 0.0042 mGy/MBq
- Effective dose [2, 4]: 0.0083 mSv/MBq
- Effective dose equivalent [2, 4]: 0.0124 mSv/MBq
- PET/CT visualisation, non-blocked (PC3-pip xenografts [3]; 1 and 3 h pi): elevated activity uptake could be visualised in the kidneys and the tumour
- PET/CT visualisation of tumour upon blocking of PSMA and GRPR (PC3-pip xenografts [3]; co-injected NOTA-PEG2-RM26 and PSMA-11 (5 nmol each)): the tumour is no longer visualised
- Clinical or biochemical parameters in toxicological studies (Wistar rats; single iv bolus 10.3 μg (10 MBq for labelled), 24 h and 28 days pi, vs control groups): no changes
- Toxicity conclusion (Wistar rats; single iv bolus 10.3 μg, acute (24 h) and subacute (28 days)): absence of toxicity; also recorded: safe toxicological profile
